Reference: PMC11494953 (2024)

Biological target: EV-A71 2C protein (analyte of the SPR assay) (Enterovirus A71 (strain ), UniProt Q66478 1112-1440)
Test: SPR

B1: UBE3C protein (TP315110, ORIGENE) (enzyme)
chain: MFSFEGDFKTRPKVSLGGASRKEEKASLLHRTQEERRKREEERRRLKNAIIIQSFIRGYRDRKQQYSIQRSAFDRCATLSQSGGAFPIANGPNLTLLVRQLLFFYKQNEDSKRLIWLYQNLIKHSSLFVKQLDGSERLTCLFQIKRLMSLCCRLLQNCNDDSLNVALPMRMLEVFSSENTYLPVLQDASYVVSVIEQILHYMIHNGYYRSLYLLINSKLPSSIEYSDLSRVPIAKILLENVLKPLHFTYNSCPEGARQQVFTAFTEEFLAAPFTDQIFHFIIPALADAQTVFPYEPFLNALLLIESRCSRKSGGAPWLFYFVLTVGENYLGALSEEGLLVYLRVLQTFLSQLPVSPASASCHDSASDSEEESEEADKPSSPEDGRLSVSYITEECLKKLDTKQQTNTLLNLVWRDSASEEVFTTMASVCHTLMVQHRMMVPKVRLLYSLAFNARFLRHLWFLISSMSTRMITGSMVPLLQVISRGSPMSFEDSSRIIPLFYLFSSLFSHSLISIHDNEFFGDPIEVVGQRQSSMMPFTLEELIMLSRCLRDACLGIIKLAYPETKPEVREEYITAFQSIGVTTSSEMQQCIQMEQKRWIQLFKVITNLVKMLKSRDTRRNFCPPNHWLSEQEDIKADKVTQLYVPASRHVWRFRRMGRIGPLQSTLDVGLESPPLSVSEERQLAVLTELPFVVPFEERVKIFQRLIYADKQEVQGDGPFLDGINVTIRRNYIYEDAYDKLSPENEPDLKKRIRVHLLNAHGLDEAGIDGGGIFREFLNELLKSGFNPNQGFFKTTNEGLLYPNPAAQMLVGDSFARHYYFLGRMLGKALYENMLVELPFAGFFLSKLLGTSADVDIHHLASLDPEVYKNLLFLKSYEDDVEELGLNFTVVNNDLGEAQVVELKFGGKDIPVTSANRIAYIHLVADYRLNRQIRQHCLAFRQGLANVVSLEWLRMFDQQEIQVLISGAQVPISLEDLKSFTNYSGGYSADHPVIKVFWRVVEGFTDEEKRKLLKFVTSCSRPPLLGFKELYPAFCIHNGGSDLERLPTASTCMNLLKLPEFYDETLLRSKLLYAIECAAGFELS
Q: Which Kd does the source give for B1 here?
A: 72.1 µM
